# Experimental data published in the supplement of paper PMC11316812.
# ± gives the standard deviation of the averaged measurements.
# What was measured:
# [1] = tested on: MCF7; assay: percentage of EdU-negative (G0-arrested) nuclei per well, 72 h; higher = more G0 arrest; conditions: reference: sequence is the full UniProt precursor, the tested protein was the secreted form or ectodomain
# [2] = tested on: hTERT-HMEC; assay: as above; conditions: reference: sequence is the full UniProt precursor, the tested protein was the secreted form or ectodomain
# [3] = protein concentration 0.0111429 µM
# [4] = protein concentration 0.111429 µM
# [5] = protein concentration 0.0225 µM
# [6] = protein concentration 0.0145 µM
# [7] = protein concentration 0.0257143 µM
# [8] = protein concentration 0.257143 µM
# 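Also: secreted proteins added to cultured cells, EdU pulse at the end, nuclei found by Hoechst imaging, EdU status from nuclear versus surrounding ring intensity ratio, PBS as neutral control.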
# Sequence of Q9ULB1 (chain, as listed by the source): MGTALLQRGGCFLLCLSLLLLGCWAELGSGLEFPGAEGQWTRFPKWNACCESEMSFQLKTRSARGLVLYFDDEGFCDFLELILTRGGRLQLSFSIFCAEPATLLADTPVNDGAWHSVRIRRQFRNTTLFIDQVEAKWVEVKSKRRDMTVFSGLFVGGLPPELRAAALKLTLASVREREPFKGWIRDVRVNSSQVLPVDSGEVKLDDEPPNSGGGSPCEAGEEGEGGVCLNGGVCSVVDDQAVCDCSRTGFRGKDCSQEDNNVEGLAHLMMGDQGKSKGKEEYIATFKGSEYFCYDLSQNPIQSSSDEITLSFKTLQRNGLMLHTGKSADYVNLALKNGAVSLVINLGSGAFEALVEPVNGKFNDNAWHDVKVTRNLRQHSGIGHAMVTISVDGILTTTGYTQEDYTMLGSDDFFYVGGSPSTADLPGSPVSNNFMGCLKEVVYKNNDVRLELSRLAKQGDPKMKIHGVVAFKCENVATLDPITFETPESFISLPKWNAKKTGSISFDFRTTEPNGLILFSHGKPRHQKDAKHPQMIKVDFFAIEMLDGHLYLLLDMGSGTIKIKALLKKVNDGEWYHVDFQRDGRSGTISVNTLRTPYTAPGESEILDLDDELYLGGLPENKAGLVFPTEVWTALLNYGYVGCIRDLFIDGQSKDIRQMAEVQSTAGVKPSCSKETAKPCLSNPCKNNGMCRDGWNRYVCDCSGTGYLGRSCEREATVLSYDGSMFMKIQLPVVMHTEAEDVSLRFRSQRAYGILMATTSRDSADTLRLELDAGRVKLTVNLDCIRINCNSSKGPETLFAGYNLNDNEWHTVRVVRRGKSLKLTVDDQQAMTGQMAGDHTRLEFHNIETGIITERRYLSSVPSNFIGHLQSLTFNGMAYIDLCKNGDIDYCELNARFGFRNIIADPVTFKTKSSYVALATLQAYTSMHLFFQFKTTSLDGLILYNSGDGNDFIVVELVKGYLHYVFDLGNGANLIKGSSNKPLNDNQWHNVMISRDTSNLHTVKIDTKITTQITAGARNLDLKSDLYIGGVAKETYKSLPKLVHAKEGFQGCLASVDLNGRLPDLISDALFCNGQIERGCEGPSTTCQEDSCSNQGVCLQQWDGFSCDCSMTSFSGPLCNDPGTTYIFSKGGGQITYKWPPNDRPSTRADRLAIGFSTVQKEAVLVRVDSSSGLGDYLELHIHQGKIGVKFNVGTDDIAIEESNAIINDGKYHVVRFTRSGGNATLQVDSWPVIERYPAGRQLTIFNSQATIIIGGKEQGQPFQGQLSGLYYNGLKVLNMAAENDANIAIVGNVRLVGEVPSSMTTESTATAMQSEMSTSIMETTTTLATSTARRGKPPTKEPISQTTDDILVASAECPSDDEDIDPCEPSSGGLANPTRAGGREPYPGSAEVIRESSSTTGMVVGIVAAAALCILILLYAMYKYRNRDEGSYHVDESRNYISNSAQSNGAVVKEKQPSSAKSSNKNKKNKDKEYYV
# Sequence of Q8IWL1 (chain, as listed by the source): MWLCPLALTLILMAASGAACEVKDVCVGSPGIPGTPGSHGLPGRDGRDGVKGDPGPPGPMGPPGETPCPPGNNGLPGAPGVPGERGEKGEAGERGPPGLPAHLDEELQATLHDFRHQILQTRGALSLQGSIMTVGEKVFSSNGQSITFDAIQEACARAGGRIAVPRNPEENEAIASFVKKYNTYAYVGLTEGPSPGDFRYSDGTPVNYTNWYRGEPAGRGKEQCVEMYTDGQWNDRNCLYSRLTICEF
Substance,"percentage of EdU-negative [1, 5]",percentage of EdU-negative ([1]; protein concentration 0.225 µM),"percentage of EdU-negative [2, 5]",percentage of EdU-negative ([2]; protein concentration 0.225 µM),also measured
MMLRLLSSLLLVAVASGYGPPSSRPSSRVVNGEDAVPYSWPWQVSLQYEKSGSFYHTCGGSLIAPDWVVTAGHCISSSRTYQVVLGEYDRAVKEGPEQVIPINSGDLFVHPLWNRSCVACGNDIALIKLSRSAQLGDAVQLASLPPAGDILPNETPCYITGWGRLYTNGPLPDKLQEALLPVVDYEHCSRWNWWGSSVKKTMVCAGGDIRSGCNGDSGGPLNCPTEDGGWQVHGVTSFVSAFGCNTRRKPTVFTRVSAFIDWIEETIASH,–,–,–,–,percentage of EdU-negative ([1]; protein concentration 0.022 µM): 25.2 ± 2.1%; percentage of EdU-negative ([1]; protein concentration 0.22 µM): 29.66 ± 0.19%; percentage of EdU-negative ([2]; protein concentration 0.022 µM): 5.18 ± 0.89%; percentage of EdU-negative ([2]; protein concentration 0.22 µM): 8.27 ± 2%
Q9ULB1,–,–,–,–,"percentage of EdU-negative [1, 3]: 25.5 ± 2.5%; percentage of EdU-negative [1, 4]: 26.3 ± 2.4%; percentage of EdU-negative [2, 3]: 5.3 ± 0.36%; percentage of EdU-negative [2, 4]: 9.04 ± 0.11%"
MAGSPTCLTLIYILWQLTGSAASGPVKELVGSVGGAVTFPLKSKVKQVDSIVWTFNTTPLVTIQPEGGTIIVTQNRNRERVDFPDGGYSLKLSKLKKNDSGIYYVGIYSSSLQQPSTQEYVLHVYEHLSKPKVTMGLQSNKNGTCVTNLTCCMEHGEEDVIYTWKALGQAANESHNGSILPISWRWGESDMTFICVARNPVSRNFSSPILARKLCEGAADDPDSSMVLLCLLLVPLLLSLFVLGLFLWFLKRERQEEYIEEKKRVDICRETPNICPHSGENTEYDTIPHTNRTILKEDPANTVYSTVEIPKKMENPHSLLTMPDTPRLFAYENVI [Q9NQ25],27.18 ± 0.048%,27.7 ± 1.3%,5 ± 0.45%,6.3 ± 0.74%,–
MKWMVVVLVCLQLLEAAVVKVPLKKFKSIRETMKEKGLLGEFLRTHKYDPAWKYRFGDLSVTYEPMAYMDAAYFGEISIGTPPQNFLVLFDTGSSNLWVPSVYCQSQACTSHSRFNPSESSTYSTNGQTFSLQYGSGSLTGFFGYDTLTVQSIQVPNQEFGLSENEPGTNFVYAQFDGIMGLAYPALSVDEATTAMQGMVQEGALTSPVFSVYLSNQQGSSGGAVVFGGVDSSLYTGQIYWAPVTQELYWQIGIEEFLIGGQASGWCSEGCQAIVDTGTSLLTVPQQYMSALLQATGAQEDEYGQFLVNCNSIQNLPSLTFIINGVEFPLPPSSYILSNNGYCTVGVEPTYLSSQNGQPLWILGDVFLRSYYSVYDLGNNRVGFATAA,24.38 ± 0.12%,23.4 ± 0.35%,4.89 ± 0.11%,6.1 ± 0.73%,–
MKLCVTVLSLLVLVAAFCSLALSAPMGSDPPTACCFSYTARKLPRNFVVDYYETSSLCSQPAVVFQTKRGKQVCADPSESWVQEYVYDLELN [Q8NHW4],–,–,–,–,"percentage of EdU-negative [1, 6]: 23.4 ± 2%; percentage of EdU-negative ([1]; protein concentration 0.145 µM): 25.62 ± 0.055%; percentage of EdU-negative [2, 6]: 5.26 ± 0.85%; percentage of EdU-negative ([2]; protein concentration 0.145 µM): 6.68 ± 1.3%"
Q8IWL1,28.1 ± 0.35%,26.4 ± 0.85%,5.29 ± 1.1%,6.43 ± 1.3%,–
MARAMAAAWPLLLVALLVLSWPPPGTGDVVVQAPTQVPGFLGDSVTLPCYLQVPNMEVTHVSQLTWARHGESGSMAVFHQTQGPSYSESKRLEFVAARLGAELRNASLRMFGLRVEDEGNYTCLFVTFPQGSRSVDIWLRVLAKPQNTAEVQKVQLTGEPVPMARCVSTGGRPPAQITWHSDLGGMPNTSQVPGFLSGTVTVTSLWILVPSSQVDGKNVTCKVEHESFEKPQLLTVNLTVYYPPEVSISGYDNNWYLGQNEATLTCDARSNPEPTGYNWSTTMGPLPPFAVAQGAQLLIRPVDKPINTTLICNVTNALGARQAELTVQVKEGPPSEHSGISRNAIIFLVLGILVFLILLGIGIYFYWSKCSREVLWHCHLCPSSTEHASASANGHVSYSAVSRENSSSQDPQTEGTR [A0A0C4DG49],23.8 ± 1.6%,26.1 ± 2.5%,4.71 ± 0.025%,10.7 ± 2.4%,–
MGAYARASGVCARGCLDSAGPWTMSRALRPPLPPLCFFLLLLAAAGARAGGYETCPTVQPNMLNVHLLPHTHDDVGWLKTVDQYFYGIKNDIQHAGVQYILDSVISALLADPTRRFIYVEIAFFSRWWHQQTNATQEVVRDLVRQGRLEFANGGWVMNDEAATHYGAIVDQMTLGLRFLEDTFGNDGRPRVAWHIDPFGHSREQASLFAQMGFDGFFFGRLDYQDKWVRMQKLEMEQVWRASTSLKPPTADLFTGVLPNGYNPPRNLCWDVLCVDQPLVEDPRSPEYNAKELVDYFLNVATAQGRYYRTNHTVMTMGSDFQYENANMWFKNLDKLIRLVNAQQAKGSSVHVLYSTPACYLWELNKANLTWSVKHDDFFPYADGPHQFWTGYFSSRPALKRYERLSYNFLQVCNQLEALVGLAANVGPYGSGDSAPLNEAMAVLQHHDAVSGTSRQHVANDYARQLAAGWGPCEVLLSNALARLRGFKDHFTFCQQLNISICPLSQTAARFQVIVYNPLGRKVNWMVRLPVSEGVFVVKDPNGRTVPSDVVIFPSSDSQAHPPELLFSASLPALGFSTYSVAQVPRWKPQARAPQPIPRRSWSPALTIENEHIRATFDPDTGLLMEIMNMNQQLLLPVRQTFFWYNASIGDNESDQASGAYIFRPNQQKPLPVSRWAQIHLVKTPLVQEVHQNFSAWCSQVVRLYPGQRHLELEWSVGPIPVGDTWGKEVISRFDTPLETKGRFYTDSNGREILERRRDYRPTWKLNQTEPVAGNYYPVNTRIYITDGNMQLTVLTDRSQGGSSLRDGSLELMVHRRLLKDDGRGVSEPLMENGSGAWVRGRHLVLLDTAQAAAAGHRLLAEQEVLAPQVVLAPGGGAAYNLGAPPRTQFSGLRRDLPPSVHLLTLASWGPEMVLLRLEHQFAVGEDSGRNLSAPVTLNLRDLFSTFTITRLQETTLVANQLREAASRLKWTTNTGPTPHQTPYQLDPANITLEPMEIRTFLASVQWKEVDG,24.7 ± 1.5%,24.7 ± 1.2%,4.43 ± 0.26%,5.51 ± 0.44%,–
MPLSLGAEMWGPEAWLLLLLLLASFTGRCPAGELETSDVVTVVLGQDAKLPCFYRGDSGEQVGQVAWARVDAGEGAQELALLHSKYGLHVSPAYEGRVEQPPPPRNPLDGSVLLRNAVQADEGEYECRVSTFPAGSFQARLRLRVLVPPLPSLNPGPALEEGQGLTLAASCTAEGSPAPSVTWDTEVKGTTSSRSFKHSRSAAVTSEFHLVPSRSMNGQPLTCVVSHPGLLQDQRITHILHVSFLAEASVRGLEDQNLWHIGREGAMLKCLSEGQPPPSYNWTRLDGPLPSGVRVDGDTLGFPPLTTEHSGIYVCHVSNEFSSRDSQVTVDVLDPQEDSGKQVDLVSASVVVVGVIAALLFCLLVVVVVLMSRYHRRKAQQMTQKYEEELTLTRENSIRRLHSHHTDPRSQPEESVGLRAEGHPDSLKDNSSCSVMSEEPEGRSYSTLTTVREIETQTELLSPGSGRAEEEEDQDEGIKQAMNHFVQENGTLRAKPTGNGIYINGRGHLV [Q96NY8],27.6 ± 2%,27.8 ± 0.29%,4.77 ± 0.36%,5.65 ± 0.22%,–
MALPRCTWPNYVWRAVMACLVHRGLGAPLTLCMLGCLLQAGHVLSQKLDDVDPLVATNFGKIRGIKKELNNEILGPVIQFLGVPYAAPPTGERRFQPPEPPSPWSDIRNATQFAPVCPQNIIDGRLPEVMLPVWFTNNLDVVSSYVQDQSEDCLYLNIYVPTEDVKRISKECARKPGKKICRKGGPLTKKQTDDLGDNDGAEDEDIRDSGGPKPVMVYIHGGSYMEGTGNLYDGSVLASYGNVIVITVNYRLGVLGFLSTGDQAAKGNYGLLDLIQALRWTSENIGFFGGDPLRITVFGSGAGGSCVNLLTLSHYSEGNRWSNSTKGLFQRAIAQSGTALSSWAVSFQPAKYARMLATKVGCNVSDTVELVECLQKKPYKELVDQDIQPARYHIAFGPVIDGDVIPDDPQILMEQGEFLNYDIMLGVNQGEGLKFVENIVDSDDGISASDFDFAVSNFVDNLYGYPEGKDVLRETIKFMYTDWADRHNPETRRKTLLALFTDHQWVAPAVATADLHSNFGSPTYFYAFYHHCQTDQVPAWADAAHGDEVPYVLGIPMIGPTELFPCNFSKNDVMLSAVVMTYWTNFAKTGDPNQPVPQDTKFIHTKPNRFEEVAWTRYSQKDQLYLHIGLKPRVKEHYRANKVNLWLELVPHLHNLNDISQYTSTTTKVPSTDITFRPTRKNSVPVTSAFPTAKQDDPKQQPSPFSVDQRDYSTELSVTIAVGASLLFLNILAFAALYYKKDKRRHDVHRRCSPQRTTTNDLTHAQEEEIMSLQMKHTDLDHECESIHPHEVVLRTACPPDYTLAMRRSPDDVPLMTPNTITMIPNTIPGIQPLHTFNTFTGGQNNTLPHPHPHPHSHSTTRV [Q8N2Q7],–,–,–,–,"percentage of EdU-negative [1, 7]: 23.1 ± 1.3%; percentage of EdU-negative [1, 8]: 22.8 ± 3.5%; percentage of EdU-negative [2, 7]: 4.75 ± 0.6%; percentage of EdU-negative [2, 8]: 5.43 ± 0.056%"
MVDGVMILPVLIMIALPSPSMEDEKPKVNPKLYMCVCEGLSCGNEDHCEGQQCFSSLSINDGFHVYQKGCFQVYEQGKMTCKTPPSPGQAVECCQGDWCNRNITAQLPTKGKSFPGTQNFHLEVGLIILSVVFAVCLLACLLGVALRKFKRRNQERLNPRDVEYGTIEGLITTNVGDSTLADLLDHSCTSGSGSGLPFLVQRTVARQITLLECVGKGRYGEVWRGSWQGENVAVKIFSSRDEKSWFRETELYNTVMLRHENILGFIASDMTSRHSSTQLWLITHYHEMGSLYDYLQLTTLDTVSCLRIVLSIASGLAHLHIEIFGTQGKPAIAHRDLKSKNILVKKNGQCCIADLGLAVMHSQSTNQLDVGNNPRVGTKRYMAPEVLDETIQVDCFDSYKRVDIWAFGLVLWEVARRMVSNGIVEDYKPPFYDVVPNDPSFEDMRKVVCVDQQRPNIPNRWFSDPTLTSLAKLMKECWYQNPSARLTALRIKKTLTKIDNSLDKLKTDC,26.7 ± 0.75%,27.2 ± 0.41%,5.41 ± 0.37%,5.41 ± 1.3%,–
